Changes are numbered by the printed parent chain. Like-named read-outs stand apart in the source and are kept apart here.
B1: #6 (mono) B7-H3 mono antibody free of TGFβ binding portion (antibody, human IgG1, N297A, V domains shown)
VH: EVQLLESGGGLVQPGGSLRLSCAASGFTFSTYAISWVRQAPGKGLEWVSSIYYSGYTHYNPSLESRFTISRDNSKNTLYLQMNSLRAEDTAVYYCARGYSGWMDVWGQGTLVTVSS
VL: QSVLTQPPSASGTPGQRVTISCGGNNIGSKSVHWYQQLPGTAPKLLIYDNNKRPSGVPNRFSGSKSGTSASLAISGLRSEDEADYYCAAWDDSLNVPVFGGGTKLTVL
B2: #9 (mono) B7-H3 mono antibody free of TGFβ binding portion (antibody, human IgG1, N297A, V domains shown)
VH: EVQLLESGGGLVQPGGSLRLSCAASGFTFSSYAMNWVRQAPGKGLEWVSTISGSGGQTYYADSVKGRFTISRDNSKNTLYLQMNSLRAEDTAVYYCARWRSIWAFDYWGQGTLVTVSS
VL: B1 VL with G23S, G24D, N59D, A88G, A89T, N95S, V96G
B3: #7 (mono) B7-H3 mono antibody free of TGFβ binding portion (antibody, human IgG1, N297A, V domains shown)
VH: EVQLLESGGGLVQPGGSLRLSCAASGFTFSNFWIGWVRQAPGKGLEWVSWINPPGSITSYADSVKGRFTISRDNSKDTLYLQMNSLRAEDTAVYYCAREVGDVLDYWGQGTLVTVSS
VL: QSVLTQPPSASGTPGQRVTISCTGTSSDIGRYNYVSWYQQLPGTAPKLLIYRNTQRPSGVPDRFSGSKSGTSASLAISGLRSEDEADYYCGTWDSSLNAYVFGGGTKLTVL
B4: #5 (mono) B7-H3 mono antibody free of TGFβ binding portion (antibody, human IgG1, N297A, V domains shown)
VH: EVQLLESGGGLVQPGGSLRLSCAASGFTFSTYAMSWVRQAPGKGLEWVSAISGSGGSTLYADSVKGRFTISRDNSKNTLYLQMNSLRAEDTAVYYCARGGSATWAFDLWGQGTLVTVSS
VL: QSVLTQPPSASGTPGQRVTISCSGSSSNIGSNYVYWYQQLPGTAPKLLIYRNNQRPSGVPDRFSGSKSGTSASLAISGLRSEDEADYYCGTWDSSLSGVVFGGGTKLTVL
B5: #8 (mono) B7-H3 mono antibody free of TGFβ binding portion (antibody, human IgG1, N297A, V domains shown)
VH: EVQLLESGGGLVQPGSSLRLSCAASGFTFSSYWISWVRQAPGKGLEWVSEISPSGNTNYNPSLKSRFTISRDNSKNTLYLQMNSLRAEDTAVYYCAREVGDLLDYWGQGTLVTVSS
VL: QSVLTQPPSASGTPGQRVTISCSGSNIGNNYVSWYQQLPGTAPKLLIYQDSKRPSGVPDRFSGSKSGTSASLAISGLRSEDEADYYCLVWDRSSDHFVFGGGTKLTVL

What was measured:
[1] = molecular target: T1, recombinant human TGFβ1 protein (R&D Systems, Cat #7754-BH-025/CF) (human, UniProt P01137 279-390); assay: bridging ELISA on plate-coated TGFβ1, detected with His-tag human B7-H3; paragraph 158 says the mono antibodies are not bound to TGFβ1
T1 construct: Bought protein
T1 sequence (P01137 279-390 limits assumed): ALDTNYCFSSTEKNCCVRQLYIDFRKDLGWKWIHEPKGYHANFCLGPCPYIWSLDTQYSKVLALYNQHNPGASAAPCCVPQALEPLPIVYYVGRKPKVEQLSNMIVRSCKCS

[2] = molecular target: T1, recombinant human TGFβ1 protein (R&D …); assay: as above; remark: listed apart in the source

Binder	binding result [1]	binding result [2]
B1	no binding	–
B2	no binding	–
B3	no binding	–
B4	–	no binding
B5	no binding	–

Reference: US20240287190A1 (THERANOTICS, published 2024)
